US20210388049A1 (1GLOBE BIOMEDICAL, published 2021)

What was measured:
[1] = molecular target: PDL1 coated on ELISA plates (UniProt Q9NZQ7 19-238, limits assumed); assay: receptor blocking ELISA, biotinylated Fc-PD1 binding to PDL1-coated plates, streptavidin-HRP
Excerpt: (§1) In both cases, binding was detected by using streptavidin linked horse radish peroxidase.

biotinylated Fc-PDL1 = molecular target: T1, biotinylated Fc-PDL1 (UniProt Q9NZQ7 19-238, limits assumed, biotinylated (site not stated)); assay: receptor blocking ELISA, biotinylated Fc-PDL1 binding to PD1-coated plates, streptavidin-HRP
T1 construct: The order of the parts follows the printed name; not shown: Fc portion
Excerpt: as §1

[2] = molecular target: T2, human PDL1 transgenically expressed on DLD1 cells (human, UniProt Q9NZQ7 19-290); assay: FACS on DLD1 cells expressing human PDL1, fluorescent anti-human-IgG detection; mean, SD 297
T2 construct: whole, on cells; also called cell surface PDL1; PDLL
Procedure: To test the ability of the proteins to bind cell surface PDL1, we used DLD1 cells expressing transgenically expressed human PDLL. […] Briefly, 10⁵ cells were incubated with different concentrations of the protein for 30 minutes at 4° C. Cells were washed with PBS and incubated with a fluorescent, anti-human-IgG antibody for 30 minutes at 4° C. Cells were again washed with PBS and binding was detected by FACS.

T1 sequence (Q9NZQ7 19-238 limits assumed): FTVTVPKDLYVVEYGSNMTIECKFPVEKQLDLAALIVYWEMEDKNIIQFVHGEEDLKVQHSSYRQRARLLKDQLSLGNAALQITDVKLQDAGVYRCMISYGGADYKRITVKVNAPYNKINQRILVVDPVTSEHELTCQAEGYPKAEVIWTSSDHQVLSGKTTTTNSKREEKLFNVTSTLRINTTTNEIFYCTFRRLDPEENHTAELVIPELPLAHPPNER
Sequence of PDL1 coated on ELISA plates (Q9NZQ7 19-238 limits assumed): as above
T2 sequence (Q9NZQ7 19-290): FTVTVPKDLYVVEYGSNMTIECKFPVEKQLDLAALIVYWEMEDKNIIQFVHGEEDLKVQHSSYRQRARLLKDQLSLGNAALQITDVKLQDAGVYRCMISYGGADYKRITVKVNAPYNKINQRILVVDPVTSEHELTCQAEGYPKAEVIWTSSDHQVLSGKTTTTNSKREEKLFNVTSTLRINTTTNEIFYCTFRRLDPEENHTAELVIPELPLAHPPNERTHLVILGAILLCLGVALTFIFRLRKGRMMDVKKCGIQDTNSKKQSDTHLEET

B1: E3 anti-PDL1 antibody (antibody, human IgG1, kappa, V domains shown)
VH: QIQLVQSGAEVKKPGSSVKVSCKASGGTFSSYAISWVRQAPGQGLEWMGGIIPIFGTANYAQKFQGRVTITADKSTSTAYMELSSLRSEDTAVYYCAGGGAVADNSYWGQGTLVTVSS
VL: DIRMTQSPSSLSASVGDRVTITCRASQGIRNDLGWYQQKPGKAPKLLIYAASSLQSGVPSRFSGSGSGTDFTLTISSLQPEDFATYYCLQDYNYPRTFGQGTKVEIKR
B1 was tested, and the IC50 [1] was 16.6 nM and the IC50 (biotinylated Fc-PDL1) was 92.7 nM.

B2: E1 anti-PDL1 antibody (antibody, human IgG1, kappa, V domains shown)
VH: QIQLVQSGAEVKMPGASVTISCEASGYNFISYYIHWVRQAPGQGLEWMGFVVPSGGAAGYTQKFQGRLTVTRDTSTSTVYMDLNSLTSDDTAVYYCVREMSGGWFDFWGQGTLVTVSS
VL: DIVMTQSPSSLSASVGDRVTITCRASQGIRNDLGWYQQKPGKAPKLLIYAASTLQSGVPSRFSGSGSGTDFTLTISSLQAEDVAVYYCQQYYSTPLTFGPGTKVDIKR
notes: The full-length entries begin with the secretory leader; The constant region is human IgG1 type; also called parental antibody
B2 was tested, and the EC50 [2] was 1.96 nM, the IC50 [1] was 1.53 nM and the IC50 (biotinylated Fc-PDL1) was 1.26 nM.

B3: B2 anti-PDL1 antibody (antibody, human IgG1, lambda, V domains shown)
VH: EVQLVESGGGLVQPGGSLRLSCAASGFTFSDYDMIWVRQAPGKGLEWVAVISYDGSNKYYADSVKGRFTISRDNSKNTLYLQMNSLRAEDTAVYYCAKEFFGAFDIWGQGTMVTVSS
VL: SSELTQDPAVSVALGQTVTITCQGDSLNYYYANWFQLKPGQAPVLVLFGKNNRPSGIPDRFSGSYSGSTASLTITGAQAEDDADYYCNSRDSGGNPWVFGGGTKLTVLG
Work on B3 yielded an IC50 [1] of 0.8 nM and an IC50 (biotinylated Fc-PDL1) of 1.39 nM.
